Laboratory results from patent publication US7129055.
“And” between values parts separate entries of the source, which are not always exact repeats. Equal entries are not always repeated.

target: C-C Chemokine Receptor 5 (CC-CKR5) (human) (UniProt P51681); assay: cell-based or functional assay

How did the sensitivity of 293T cells co-expressing CD4 and CC-CKR-5 to infection by pseudotyped luciferase reporter virus (orders of magnitude) turn out when “ADA Env (macrophage-tropic HIV-1 envelope glycoprotein)” was run?
Its sensitivity of 293T cells co-expressing CD4 and CC-CKR-5 to infection by pseudotyped luciferase reporter virus (orders of magnitude) is 3 and 4.

For “BaL Env (macrophage-tropic HIV-1 envelope glycoprotein)”, which sensitivity of 293T cells co-expressing CD4 and CC-CKR-5 to infection by pseudotyped luciferase reporter virus (orders of magnitude) is on record?
Its sensitivity of 293T cells co-expressing CD4 and CC-CKR-5 to infection by pseudotyped luciferase reporter virus (orders of magnitude) is 3 and 4.

Which sensitivity of 293T cells co-expressing CD4 and CC-CKR-5 to infection by pseudotyped luciferase reporter virus (orders of magnitude) does the source give for “JRFL Env (macrophage-tropic HIV-1 envelope glycoprotein)” here?
The sensitivity of 293T cells co-expressing CD4 and CC-CKR-5 to infection by pseudotyped luciferase reporter virus (orders of magnitude) was 3 and 4.

Which reduction of infection of HeLa cells expressing CD4 and CC-CKR-5 by macrophage-tropic virus; mixture of chemokines does the source give for “MIP-1α (from UniProt P10147 23-92) (ligand)” here?
Its reduction of infection of HeLa cells expressing CD4 and CC-CKR-5 by macrophage-tropic virus; mixture of chemokines is 80% and 70%.

For “MIP-1β (from UniProt P13236 24-92) (ligand)”, which reduction of infection of HeLa cells expressing CD4 and CC-CKR-5 by macrophage-tropic virus; mixture of chemokines is on record?
Its reduction of infection of HeLa cells expressing CD4 and CC-CKR-5 by macrophage-tropic virus; mixture of chemokines is 70% and 80%.

How did the reduction of infection of HeLa cells expressing CD4 and CC-CKR-5 by macrophage-tropic virus; mixture of chemokines turn out when “RANTES (from UniProt P13501 24-91) (ligand)” was run?
Its reduction of infection of HeLa cells expressing CD4 and CC-CKR-5 by macrophage-tropic virus; mixture of chemokines is 70% and 80%.
